The results in this text go back to the PETadex activity labels.

Sequences and labels used below:
B1: unnamed (protein)
chain: MKTIARWQRRCAVGLGLLLLAAAAQSQTNPFQKGPDPTSTILNATAGPFAVATASVPSSVAGFGGGTVYYPTTAGSYAALALCPGFTATQSSIAWIGRRLATHGFVVITINTNSTFDQPPSRATQLMAALRYLTNSSSTTVRSRIDANRLGVGGHSMGGGGTLMATRDNPSLKVGIPMTPWSSTKSFSTVRVPTIIFGGENDTVAPVSSHSIPFYTSLPSSLDKAYAELNGASHFAPNSTNTPIGRYAVSWAKRFMDNDTRYDTFLCGSAHTAFATPAVFSDYRSTCPY
B2: unnamed (protein)
chain: MQRQTCTTPVGPFHPQETSPMTLTSTLQRFAGIRPFALALPLAAIGWVAQAQTNPPTSSLLNATAGPLTVSTSSVSSFAARGFGGGTIYYPDATGSYGVVAISPGYTARQSSIAWLGRRLATHGFVVITIDTNSTLDQPPSRATQLMAALGHVVNNANATVRSRVDASKQAVAGHSMGGGGSLIAAQNNPTLKAAYPLTPWSVSKNYGTVRVPTMIIGADGDTIAAVTTHSRAFYNSLSSTVFKAYGELNNASHFTPNSTNTPIGRYAVSWMKRFVDSDTRYSPFLCGAPHDSYATRTVFDRYERNCPY
B3: unnamed (protein)
chain: MSLVSHRAATTRACSKPQTEISRSPRNRRGAFIACVSLALVSSFAHADVLLQENFDGTLGQFTSVGSVSVTTSGARMAGSFGGTDGAITSAAISTVGFTALSLSYTRTTTGLDSGEAGILEYSTNGTTYTSLGSTQSASGPVTVGLPAAAENQAGLRLRWRVNASSSSEYYTVDSIQLQGTGGTSCEPNCPPTGNPYQRGPAPTTSTLDATSGSFTVDSVTVSSTAANGYGGGTIYYPVNTTEGPFAAIAVIPGYLSPQSSIQQWGPRLASWGFVVITITTNSGSDQPSSRATQLVAALDQVVSYSNSTTHAIRGKVDPTRLGVAGWSMGGGGSLIALDRNPTKLKAGMMFAPWNSSTNFSGVNQPALIFACESDGTAPVSSHALPFYNSIPSSNDKAFAEVNNGSHSCANDPRNNSGRLGRYGVSWMKRFLDDDTRFTEFLCGAPHSSVISGTTTYSRYLSTCPY
B4: unnamed (protein)
chain: MPMYKLNHVFFAVALAACSALGCAEGSDGSTVSTGGDGVGGGAGETDLPAGAGGTAGVGGAAGSVDPSDIAGTGGSAGTAGETVAGSSGVPVAGTGGIPVAGSGGTGIVDSGGIGGGGAGGTLENNNFIRGPAPTAQSASQAGPYDVQSTTQGLRDPAEYGTQTLWYPTDAEPPFAAIAIVPGFVSPEGSIANWGPFLASHGIVVLTIGTNTGGDLPEVRSAALLAALDTIKAEHTRQGSPIEGKIDTGKLAVGGWSMGGGGTLLTITAHPELKAGLGICPWYMNAFAFAGNTVPVIMFAGTMDVLAGGMSQGFYDAIPASTPKMLFEIAGADHFYANDPLNVANPFTVQVGLYGLSWLKVFLEGDDRYRQFLLNPPQNASDFRTTVK
B5: unnamed (protein)
chain: MKKSILEKIAVGTGALLFSVSAFSFTPSPTPDPDPDPDPTPCQGECDFTRGPNPTSSYLEASRGPYTVRNVSVSRSVSGFGGGTIHYPTNTTGTMGAIAIVPGFLAGESSISWWGPRLASHGFVVITIATNSTFDQPASRETQLGRALDYLVSQSNSSSSPISGKVDSARLGAMGWSMGGGGTLRLASGSRLVAAIPLAPWHSGSNNFNRIQTPTMIIACENDTTAAVRSHASPFYNSIPSSTDKAFLEINNGSHSCANGGGSNGGLLGKYGVSWMKRFMDQDTRYNQFLCGPNHAANSAISEYRETCNY
B6: unnamed (protein)
chain: MRTSRTRPLRRLAAALVLALAVVLAACDIRGPDPTEQSLTASSGPFAVGTLAVPSSAGFGGGTIYYPTNTEGPFAVISVTPGFTGTQSSIAGWGPRLASHGFVAITINTTNTFENPDTRSTEQRQALTYVVNQSNTSSSPIYGKVDGNRRGVAGHSMGGGGTLISAQADPTIRAAVPLAPWNSSTNFSNVTVPTLILACQNDSIAPVASHASPMYNSIPATTDKSYLSIAGGDHFCANSPTGGSGNVGKYGVAFFKRFLDGDTRYDPWVCGASKPAAGSAINEVRSTCPF
B7: unnamed (protein)
chain: MFNIRKVAVAASVLLVSMAASAQYQKGPNPTASALERTGSFSTGSSSVSSLSASGFGGGNLYYPTASGTYGAIALCPGFTATSSSLAWLGPRLASHGFVVLIIDTNSTLDQPDSRGRQLKAATDYLVAQNSRTGSPIRGKVDTSRLAVGGHSMGGGGTLEAIRDNPSYKAGMPLAPWNTTKSFSRITVPTLIIGGSADTVAPDGSHSIPFYTSIPSSTAKIFMELRGGSHFFPQTSDPNVSRFAISWYKRWLDLDTRYSTFLNTRPSTTAVSDFRVSRTF
B8: unnamed (protein)
chain: MRPTRCPSRATSPLRSRSRVLAVLIVMATTLASTLLTVSVTPAATAARQSQSRSVAGSSSEHASVRATIPDPTTASLEATNGPLAIATYTVPQPSGYGSGTITYPTARGSYPAVVLMPGYQGTQQNLQWVAPRLASWGFIVINVGTKTLGDDPASRGRQISAAGTQLLSLGSVAGNPLYGKMNGTLGAAGHSMGGGGVMAALREDSRFTAGMPLAPYYPNQNFSGVTDPTFFLTCKSDPVAHGNTYALPWYNSMSQAEKLYIEVPGDHLCPMTGYGNKAKQGKWIVSFFSRWLYGDTRFSPFLCGAAREADKNNPSLVTRWQDTCPF
B9: unnamed (protein)
chain: MTSTTVRFAKRLIGAAALLATASVFAQSLPSDAALQATSGPLKIAQANIATPNGYGSGTVYYPTTGTNMGLVVIAPGFTEGPSFNAFWGEKLASWGFVAVNIGTKTTLDLPGPRATQMWAALQQVAALSKTSGSPFAGKVDANRLAAMGHSMGGGGTLLISQDHPTLKAAIPMAPWNLTQKNFPKITVPQLMFACQNDIIAPVSGHADRFWTSFNTTLPRVFAESKGQDHFCPTNLTSAAEKAAFGRIAIAWYKIYLDGDTQYKQVITNGNSPVFSRYLTGGL
B10: unnamed (protein)
chain: MRKIASALEIAALVLASFAAGCGDDGSSNDNPMGMTTQTANTGTPDTGVSTMVPPASTDAGTSTNVGNTNTGTLDAGMVGSTTGIKPAVDSGAVDTGVALGDASSDSGSVAVGDGGGVISPVTPIMRGDAPTKASATAKGPYKVMSYTSGFPVTLYGGGTIWYPTDAEAPFGAVAICPGFTAAQSSIMNWGPFLASHGIVALTMDTATPLDVVDQRADELMDALASIKSENDRAASPIYKKIDTMRLGVMGWSMGGGGTWLAADMHPELRSAVTFAGHIVTAVNQDVSMVHVPTLMFAGSADNAILGGGMSQGVYDGIPESTPKMVWEIMGAGHDVANDPANTSGAVGRYGLSWEKVYLEGDMRYRQFLLEMPPTASYFKTNVK
B11: unnamed (protein)
chain: MDKTRLFSTLSMVTSALLFSISVSAGKPSKGGDEPAPEPAACISDTDITSAALSSTGSSGPFTVSTKDVSRWSASGFGGGTIHYPTGAGDCGPIGGIAVVPGYVSYEASIKWWGPRLASWGFVVITINTNSIYDQPDSRATQLSAALDHIINDSTVGSMVDSSRLGAIGWSMGGGGALKLATDRSEVKAIIPQAPWYSGRYGRMKTPAFMIGCENDFVAPTSNHVDVFYANASGPKMKIEVNNGDHSCANSGYNETLLGKPGIAWMQRYIHGDTRFNQFLCGNENYGSSNSVSAYDFESCP
B12: unnamed (protein)
chain: MHAVTSLGFVRASTAPGGRGWRRLAWALALGCGLGVGTTASYAQATGPNPSSAFLNASAGPLRVATESVSSFVTGFGGGTIYYPSTAGRYGVIAISPGFTATESSVAWLGRRLASHGFVAIVINTNSTLDQPASRATQLMAALRHATTGASSTVRARIDSTRQAVAGHSMGGGGTLIAAEDNPTLKAAIPLTPWNLSTSFNGVRVPTLIVGADGDTVASVAVHARPFYASLPASTFKAYAELNGASHFAPNTTNTPIGRYSVAWAKRFIDGDTRYSPFLCGAEHRAYATAAVFDRYNQNCPY
B13: unnamed (protein)
chain: MKLERSVAQATSVARGARRHEKPSSLTSVALAGVSLALFSTFAHADVLLQENFDGNLGQFSSSGSVTVTTSGARMAGSYGGTDGAITSPAISTVGFTGLSLSYTRTTTGLDSGEGGFLEYSTNGTTFTSLGSTQSASGPVTVALPAAVENQAALRLRWRVNASLSSEYYTVDTILLEGTGGTSCEPNCPPTGNPYQRGPAPTVSSLQATTGPFQTASSAVSSSAADGYGGGTIYYPTNTTEGPFAAIAVVPGYLSPQSSIQQWGPRLASWGFVVITIATNSTSDQPSSRATQLVAALDQVVSYSNSTSHAIRGKVDPARLGVAGWSMGGGGTLIALDRNATKLKAGMAFAPWNSSTNFSGVNQPALIFGCESDGTAPVSSHSLPFYNSMPSTNDKAFAEVNNGGHSCANDPRNNSGMIGRYGVSWMKRFLDNDTRFSDFLCGAPHDTAVSGSTFSRYLETCPY
B14: unnamed (protein)
chain: MKTNRRRRLGRLALAAAALLLSVAAQAQNGSAPPGPDPDPDPNPPESDNPYPRGPDPTAATLEASSGPFAVSSFRPSSTPGFGGGTIYYPTNTNEGPFAAIAVAPGFVGTESTIDWLGPRLASHGFVVITIDTNSLFDFPDSRASQLMAALDIVIAESNGSSPISGLVDPDRTGLMGHSMGGGGSLIAARDNPTIDAVIPLAPWNSSTNFSAIDVPTLIVACENDTVAPVSQHASPMYESIPSSVDKAFLEINGGDHFCANSGNANQDILGKYIVSWMKRFLDQDTRYDPFLCGPNHEADPDISEYRDTCPY

Substrate in this series: BHET
Particulars: 120 h.
Turning to B1, the plate clearing result was “not clears the plate”.

With B2, the plate clearing result is recorded as “not clears the plate”.

For the protein B3, the plate clearing entry was “clears the plate (z > 3 vs empty vector)”.

On to B4, for which the plate clearing entry is “not clears the plate”.

Regarding B5, the plate clearing result was “not clears the plate”.

B6: the plate clearing result is reported as “not clears the plate”.

For B7, the plate clearing result is listed as “not clears the plate”.

Regarding B8, the plate clearing entry was “not clears the plate”.

For B9, the plate clearing result is “not clears the plate”.

B10: the plate clearing result was “not clears the plate”.

In the case of B11, the plate clearing entry is “not clears the plate”.

Consider B12, for which the plate clearing result is reported as “not clears the plate”.

As to B13, the plate clearing result was “clears the plate (z > 3 vs empty vector)”.

Consider B14, for which the plate clearing result is recorded as “not clears the plate”.
